Source: article PMC3135399

Target: microtubules (taxol-stabilised, of the MT cosedimentation assay) (bovine) (UniProt Q6B856)
Test: co-sedimentation

## alkaline phosphatase–treated WT CPC, P38283 1-698; P38991 1-367; P47134 1-954; Q3E7Y6 1-73
  percent cosedimented with MTs: 50%
